Patent publication US20260216242A1 (ALMAC DISCOVERY, published 2026)

Columns and labels:
[1] = target: T1, Human ALPP (leucine zipper) (human); test: BLI, antigen immobilised
T1 construct: Whole entry: ALPP fused with a cysteine stabilised leucine zipper and His tag; also called hALPP
T1 chain: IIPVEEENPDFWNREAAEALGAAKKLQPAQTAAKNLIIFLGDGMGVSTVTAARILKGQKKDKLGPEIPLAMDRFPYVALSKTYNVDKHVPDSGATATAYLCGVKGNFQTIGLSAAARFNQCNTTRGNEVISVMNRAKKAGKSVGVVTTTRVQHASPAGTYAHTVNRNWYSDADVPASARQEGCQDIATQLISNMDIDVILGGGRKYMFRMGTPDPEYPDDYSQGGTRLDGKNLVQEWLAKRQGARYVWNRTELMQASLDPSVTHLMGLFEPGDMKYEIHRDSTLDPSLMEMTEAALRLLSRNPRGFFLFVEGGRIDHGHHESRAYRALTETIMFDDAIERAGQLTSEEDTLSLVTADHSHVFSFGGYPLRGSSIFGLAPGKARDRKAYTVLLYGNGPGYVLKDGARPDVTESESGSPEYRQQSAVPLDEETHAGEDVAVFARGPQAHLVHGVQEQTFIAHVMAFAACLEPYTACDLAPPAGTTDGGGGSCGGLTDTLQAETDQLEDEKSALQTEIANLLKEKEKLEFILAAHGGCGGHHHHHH
Protocol: (§1) Binding kinetics were determined using the Biolayer Interferometry (BLI) Octet K2 system (Sartorius). […] All assays were conducted in PBS with a plate temperature of 25° C. Ka (M⁻¹s⁻¹), Kd (s⁻¹) and KD (nM) values were determined using Octet Data Analysis High Throughput software (ForteBio) for Biolayer Interferometry.

[2] = target: T2, Human ALPL (leucine zipper) (human); test: BLI, antigen immobilised
T2 construct: Whole entry: fused with a cysteine stabilised leucine zipper and His tag; also called hALPL
T2 chain: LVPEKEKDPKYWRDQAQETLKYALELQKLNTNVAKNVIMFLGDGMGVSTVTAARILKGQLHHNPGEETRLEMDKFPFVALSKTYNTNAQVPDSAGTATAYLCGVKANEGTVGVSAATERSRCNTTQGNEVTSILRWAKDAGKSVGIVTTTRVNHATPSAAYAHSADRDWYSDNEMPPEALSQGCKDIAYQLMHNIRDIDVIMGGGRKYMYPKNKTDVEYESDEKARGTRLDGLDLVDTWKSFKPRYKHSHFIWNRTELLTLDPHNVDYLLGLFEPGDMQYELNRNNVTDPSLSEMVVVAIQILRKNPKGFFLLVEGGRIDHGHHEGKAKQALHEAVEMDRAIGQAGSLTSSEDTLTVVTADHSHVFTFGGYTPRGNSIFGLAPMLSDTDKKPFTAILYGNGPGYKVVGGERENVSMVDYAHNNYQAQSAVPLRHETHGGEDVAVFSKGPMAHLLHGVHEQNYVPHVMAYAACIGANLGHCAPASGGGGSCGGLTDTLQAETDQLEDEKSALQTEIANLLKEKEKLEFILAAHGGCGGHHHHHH
Protocol: as §1

human ALPP on CHO cells = target: T3, human ALPP on CHO cells (human, UniProt P05187 23-506); test: flow cytometry, CHO cells, KDapp
T3 construct: whole, on cells; also called CHO-ALPP
Protocol: (§2) Cell surface binding of test agents to hALPP isoforms was characterized in four CHO-ALPP isoform stably transfected cell lines (CHO-ALPP, CHO-ALPPL2, CHO-ALPI and CHO-ALPL) and the resulting KDapp values determined. Adherent cells were detached from tissue culture flasks by incubating with 0.1% EDTA/PBS solution at 37° C. for ~10 minutes or until cells detached easily. Cells were re-suspended in ice-cold PBS/2% FCS in 15 ml tubes and centrifuged at 1700 rpm for 5 mins at 4° C. Supernatant was removed and the cell pellet re-suspended in PBS/2% FCS. […] Cells were incubated with 100 μl of test agents at a range of concentrations, plus controls for 1 hr on ice. The sample plate was centrifuged at 1700 rpm for 5 mins at 4° C. The supernatant was removed, and a wash performed by re-suspending the cell pellets in 0.25 mL of ice-cold PBS/2% FCS using a multichannel pipette. Samples were again centrifuged at 1700 rpm for 5 min at 4° C. Supernatant was removed and two further washes performed as described. After the final wash and centrifugation step, excess liquid was removed by blotting the plate on tissue paper. Binding of VHH (His6 tagged) agents was determined by adding 100 μl of anti-x6His tag Ab (Abcam) per cell pellet sample as appropriate and incubating on ice for 30 mins. Wash steps were performed as described previously. Fitc-anti-mouse antibody (ThermoFisher) was used to detect binding of the VHH (His6 tagged) agents by incubating with the appropriate samples for 30 min on ice in the dark. Wash steps were performed as described previously. All cell pellets were finally re-suspended in […] of ice-cold PBS/2% FCS and left on ice in the dark prior to analysis on a Merck-Millipore Guava EasyCyte HT or Thermo Fisher Attune N×T flow cytometer.

[3] = target: T4, human ALPPL2 on CHO cells (human, UniProt P10696 20-503); test: flow cytometry, CHO cells, KDapp
T4 construct: whole, on cells; also called CHO-ALPPL2
Protocol: as §2

[4] = target: T5, Human ALPPL2 (leucine zipper) (human); test: BLI, antigen immobilised
T5 construct: Whole entry: fused with a cysteine stabilised leucine zipper and His tag; also called hALPPL2
T5 chain: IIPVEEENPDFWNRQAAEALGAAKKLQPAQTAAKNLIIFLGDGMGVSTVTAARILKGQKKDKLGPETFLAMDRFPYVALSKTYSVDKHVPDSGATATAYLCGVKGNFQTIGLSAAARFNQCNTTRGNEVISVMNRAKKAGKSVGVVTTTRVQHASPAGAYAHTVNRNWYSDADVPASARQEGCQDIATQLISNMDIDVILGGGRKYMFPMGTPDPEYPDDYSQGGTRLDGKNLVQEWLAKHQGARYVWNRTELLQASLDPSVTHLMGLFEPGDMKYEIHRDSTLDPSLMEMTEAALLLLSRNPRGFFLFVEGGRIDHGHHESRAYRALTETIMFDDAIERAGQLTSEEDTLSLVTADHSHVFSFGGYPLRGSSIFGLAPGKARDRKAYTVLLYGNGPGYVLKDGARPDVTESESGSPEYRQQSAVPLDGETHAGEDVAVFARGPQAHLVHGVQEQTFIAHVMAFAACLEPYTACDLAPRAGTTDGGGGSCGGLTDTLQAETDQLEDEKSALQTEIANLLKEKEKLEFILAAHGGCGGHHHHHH
Protocol: as §1

B1: A05 His (VHH, not shown: small tags and cut ends)
VHH: QVQLVESGGGLVQAGASLTLSCAASGFTFNTRSIVWFRQAPGKEREAVSCISKVAGSTYYGDSVQGRFSSSTDNAKNTVSLQMNSLKPEDTAVYTCAASFAPNCYGWSVAANMEYWGEGTMVTVSS
notes: also called #249
For B1, the Kd [1] was < 0.01 nM, the koff [1] was < 1e-07 s⁻¹ and the kon [1] was 260000 M⁻¹ s⁻¹. For the same binder, the binding result [2] was “no binding”, the Kd (human ALPP on CHO cells) was 3.8 nM and the Kd [3] was 6 nM.

B2: A06 His (VHH, not shown: small tags and cut ends)
VHH: QVHLVESGGGLVQAGGSLRLSCAASGRTFLSMGWFRQAPGKEREFVAAISWTGGSTGYADSVKGRFTISRESDKETMYLQMNSLKPEDTAVYYCAARGDVYYGGDDATRYKYWGQGTQVTVSS
notes: also called #250
B2 showed a Kd [1] of 1.32 nM, a koff [1] of 0.000154 s⁻¹ and a kon [1] of 117000 M⁻¹ s⁻¹. The Kd [4] was 5.04 nM, the koff [4] was 0.000672 s⁻¹ and the kon [4] was 133000 M⁻¹ s⁻¹. The binding result [2] was “no binding”, the Kd (human ALPP on CHO cells) was 42.4 nM and the Kd [3] was 28.3 nM.

B3: D10 His (VHH, not shown: small tags and cut ends)
VHH: QVQLVESGGGLVQPGGSLRLSCAASGSIFSVNTMGWYRQAPGKQRDLVAVATSGGTIHYADSVKGRFTISRDNAKNTVYLQMNSLKPEDTAVYYCNLVVPYGMIAGDHDYWGQGTKVTVSS
B3 was tested, and the Kd [1] was 0.2 nM, the koff [1] was 1.3e-05 s⁻¹ and the kon [1] was 67300 M⁻¹ s⁻¹. It also gave a Kd [4] of 1.22 nM, a koff [4] of 0.0028 s⁻¹ and a kon [4] of 2.3e+06 M⁻¹ s⁻¹. The binding result [2] was “no binding” and the Kd (human ALPP on CHO cells) was 3.4 nM.

B4: D04 His (VHH, not shown: small tags and cut ends)
VHH: QVQLVESGGGLVQPGGSLRLSCAASESTFSINVMGWYRQAPGKQRELVATITSGDITNYADSVKGRFTISRDNAENTVYLRTNSLKPEDTAVYYCNARGEYHSGNEYDYWGQGTQVTVSS
With B4 the Kd [1] was < 0.01 nM, the koff [1] was < 1e-07 s⁻¹ and the kon [1] was 85100 M⁻¹ s⁻¹. For the same binder, the Kd [4] was 2.92 nM, the binding result [2] was “no binding” and the Kd (human ALPP on CHO cells) was 4.2 nM. The Kd [3] was 19.5 nM.

B5: C07 His (VHH, not shown: small tags and cut ends)
VHH: QVQLVESGGGLVQAGESLRLACAASGTIFSGNAVGWYRQAPEKQREWVSSITDYGDTDYAEAVKGRFTISRDNAKNTVYLQMNSLKPEDTAVYYCYVYQRGESEEYWGQGTQVTVSS
notes: also called #258
B5 gave a Kd [1] of 0.22 nM, a koff [1] of 2.8e-05 s⁻¹ and a kon [1] of 129000 M⁻¹ s⁻¹. The Kd [4] was 0.61 nM, the koff [4] was 0.000288 s⁻¹ and the kon [4] was 471000 M⁻¹ s⁻¹. The binding result [2] was “no binding”, the Kd (human ALPP on CHO cells) was 3.5 nM and the Kd [3] was 5.1 nM.

B6: F08 His (VHH, not shown: small tags and cut ends)
VHH: QVQLVESGGGSVQAGGSLRLSCAASGPSLSNYAMGWFRQAPGKEREFVAGISWGGGRTSYTDSVKGRFTISRDNAKNTVYLQMNNLKPEDTGVYYCAGRYGRGRNVEYEYDYWGQGTQVTVSS
notes: also called #269
B6 was tested, and the Kd [1] was < 0.01 nM, the koff [1] was < 1e-07 s⁻¹ and the kon [1] was 252000 M⁻¹ s⁻¹. For the same binder, the Kd [4] was < 0.01 nM, the koff [4] was < 1e-07 s⁻¹ and the kon [4] was 684000 M⁻¹ s⁻¹. For the same binder, the binding result [2] was “no binding”, the Kd (human ALPP on CHO cells) was 5 nM and the Kd [3] was 3.3 nM.

B7: E10 His (VHH, not shown: small tags and cut ends)
VHH: QVQLVESGGGLVQAGGSLRLSCAVSGRALSDYNIGWFRQAPGKEREFVARKTWDGSSTRYDDSVKGRFTVSIEDAKNTAYLQMSSLKTEDTAVYYCAAGRYSRARGWEYDYWGQGTQVTVSS
notes: also called #265
With B7 the Kd [1] was < 0.01 nM, the koff [1] was < 1e-07 s⁻¹ and the kon [1] was 54200 M⁻¹ s⁻¹. For the same binder, the Kd [4] was 0.0862 nM, the koff [4] was 0.000141 s⁻¹ and the kon [4] was 1.64e+06 M⁻¹ s⁻¹. For the same binder, the binding result [2] was “no binding”, the Kd (human ALPP on CHO cells) was 3.5 nM and the Kd [3] was 3.8 nM.

B8: F05 His (VHH, not shown: small tags and cut ends)
VHH: QVQLVESGGGLVQAGGSLRLSCAASGRAFGDYNIGWFRQAPGKEREFVARRTWDGSSTRYDDSVKGRFTVSIDNAKNTAYLQMNSLKTEDTAVYYCAAGRYSRVRGWEYDYWGQGTQVTVSS
In the case of B8, the Kd [1] is reported as < 0.01 nM, the koff [1] is reported as < 1e-07 s⁻¹ and the kon [1] is reported as 13900 M⁻¹ s⁻¹. For the same binder, the Kd [4] was 0.0954 nM, the koff [4] was 0.000356 s⁻¹ and the kon [4] was 3.74e+06 M⁻¹ s⁻¹. The binding result [2] was “no binding”, the Kd (human ALPP on CHO cells) was 2.3 nM and the Kd [3] was 1.8 nM.

B9: E06 His (VHH, not shown: small tags and cut ends)
VHH: QVHLVESGGGLVQAGGSLRLSCAASRRSFSEYAMGWFRQAPGKEREFVAAIGWSGVIEYADSVKGRFTISRDNAKDTVYLQMNSLKPEDTAVYYCAAGLGIRVVSQTPAYWGQGTQVTVSS
B9 was tested, and the Kd [1] was < 0.01 nM, the koff [1] was < 1e-07 s⁻¹ and the kon [1] was 106000 M⁻¹ s⁻¹. It also gave a Kd [4] of 0.0834 nM, a koff [4] of 8.75e-05 s⁻¹ and a kon [4] of 1.05e+06 M⁻¹ s⁻¹. The binding result [2] was “no binding”, the Kd (human ALPP on CHO cells) was 4.6 nM and the Kd [3] was 4.9 nM.
